Residues, ends and D or L forms follow the SMILES beside them. No end group written: not given here. *: point of attachment. X1 = CN(C)c1ccc2c(-c3cc(C(=O)*)ccc3C(=O)[O-])c3ccc(=[N+](C)C)cc-3oc2c1

Consider 22 compounds from article PMC9747329 (ACS chemical biology, 2022).

In assay [1] the target is nLuc-PTHR1 (human parathyroid hormone receptor-1 with NanoLuc luciferase fused to the N-terminus) (human) (UniProt Q03431). In words: FRET or BRET.
The target is the same in assay [2].
The next assay concerns the target T1, nLuc-PTHR1 (Homo sapiens, UniProt Q03431).
T1 sequence (Q03431 27-593): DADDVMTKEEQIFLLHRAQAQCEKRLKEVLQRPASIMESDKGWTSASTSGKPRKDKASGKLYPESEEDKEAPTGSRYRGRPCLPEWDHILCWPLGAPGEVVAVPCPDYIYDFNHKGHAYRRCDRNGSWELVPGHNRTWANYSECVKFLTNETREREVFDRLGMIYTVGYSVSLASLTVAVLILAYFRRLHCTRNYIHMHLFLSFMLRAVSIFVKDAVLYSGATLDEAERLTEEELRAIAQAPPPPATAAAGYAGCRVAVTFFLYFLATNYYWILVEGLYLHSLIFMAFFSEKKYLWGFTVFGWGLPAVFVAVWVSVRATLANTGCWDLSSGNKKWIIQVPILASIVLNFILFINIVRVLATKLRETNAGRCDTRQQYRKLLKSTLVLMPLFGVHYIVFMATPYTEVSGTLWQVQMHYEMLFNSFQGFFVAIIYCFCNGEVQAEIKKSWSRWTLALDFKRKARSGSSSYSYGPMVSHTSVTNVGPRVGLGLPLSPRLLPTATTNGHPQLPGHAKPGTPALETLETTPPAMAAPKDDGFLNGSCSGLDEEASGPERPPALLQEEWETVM
Type of assay: binding. The conditions noted are these: for koff / kon: HEK293.

For the next assay, the target named is T2, WT-PTHR1 (Homo sapiens, UniProt Q03431).
T2 sequence (Q03431 27-593): T1 sequence (Q03431 27-593)
In words: GloSensor cAMP assay in GP2.3 cells. The class given is cell-based. The conditions noted are these: for Emax: HEK293, read-out: cAMP formation %Emax.

In assay [3] the target is nLuc-ΔECD-PTHR1 (truncated PTHR1 lacking most of the extracellular domain, preceded by NanoLuc luciferase) (human) (UniProt Q03431). The experiment in a line: FRET or BRET.

Turning to PTH(3-34)K35^TMR (peptide), in assay [1], the Kd worked out at 27 nM, the koff was determined as 0.0094 s⁻¹ and the kon was 340000 M⁻¹ s⁻¹.

Turning to “PTHrP[1-18] PTH[19-34] hybrid, Lys35(TMR) (peptide)”, in assay [2], the cAMP formation (GloSensor): %Emax was 99% and the cAMP formation (GloSensor): EC50 is 0.16 nM.

At nLuc-PTHR1, `CC[C@H](C)[C@H](NC(=O)[C@H](CCCCNC(=O)c1ccc(C(=O)[O-])c(-c2c3ccc(=[N+](C)C)cc-3oc3cc(N(C)C)ccc23)c1)NC(=O)[C@H](C)NC(=O)[C@@H](NC(=O)[C@H](Cc1c[nH]cn1)NC(=O)[C@@H](NC(=O)[C@H](CCC(=O)O)NC(=O)[C@H](C)NC(=O)[C@@H](NC(=O)[C@H](CC(C)C)NC(=O)[C@H](Cc1c[nH]cn1)NC(=O)[C@H](Cc1c[nH]cn1)NC(=O)[C@H](CC(C)C)NC(=O)[C@H](Cc1ccccc1)NC(=O)[C@H](Cc1ccccc1)NC(=O)[C@H](CCCNC(=N)N)NC(=O)[C@H](CCCNC(=N)N)NC(=O)[C@H](CCCNC(=N)N)NC(=O)[C@H](CC(C)C)NC(=O)[C@H](CC(=O)O)NC(=O)[C@H](CCC(N)=O)NC(=O)[C@@H](NC(=O)[C@H](Cc1c[nH]cn1)NC(=O)[C@H](CCCCN)NC(=O)CNC(=O)[C@H](CC(C)C)NC(=O)[C@H](CC(N)=O)NC(=O)[C@H](Cc1c[nH]cn1)NC(=O)[C@H](CCSC)NC(=O)[C@H](CC(C)C)NC(=O)[C@H](CCC(N)=O)NC(=O)[C@@H](NC(=O)[C@H](CCC(=O)O)NC(=O)[C@H](CO)NC(=O)[C@@H](NC(=O)[C@@H](N)CO)C(C)C)[C@@H](C)CC)[C@@H](C)CC)[C@@H](C)CC)[C@@H](C)CC)[C@@H](C)O)C(N)=O` [PTH[1-14] PTHrP[15-36]] (H-SVSEIQLMHNLGKHIQDLRRRFFLHHLIAEIHTAK(X1)I-NH2; N-terminus assumed) yielded a koff of 0.0022 ± 0.0009 s⁻¹ and a kon of 350000 ± 40000 M⁻¹ s⁻¹. In addition, the Emax at WT-PTHR1 amounted to 106 ± 1%.

In assay [1], “PTHrP[1-16] PTH[17-34] hybrid, Lys35(TMR) (peptide)” showed a Kd of 95 nM, a koff of 0.041 s⁻¹ and a kon of 430000 M⁻¹ s⁻¹. In assay [2], this compound registered a cAMP formation (GloSensor): %Emax of 105% and a cAMP formation (GloSensor): EC50 of 0.48 nM.

As for “AVAEIQLMHQRAKWIQDARRRAFLHKLIAEIHTA-NH2 [LA-PTH, reference compound]”, at nLuc-PTHR1 (direct-binding assay, K35^TMR peptides), the “difference in KD between PTH and LA-PTH” value is listed as ~ 5 fold.

In assay [1], “PTHrP[1-14] PTH[15-34] hybrid, Lys35(TMR) (peptide)” had a Kd of 63 nM, a koff of 0.043 s⁻¹ and a kon of 680000 M⁻¹ s⁻¹. In assay [2], the cAMP formation (GloSensor): %Emax came out at 97% and the cAMP formation (GloSensor): EC50 was 0.39 nM.

In assay [1], “PTH[1-16] PTHrP[17-36] hybrid, Lys35(TMR) (peptide)” showed a Kd of 3.4 nM, a koff of 0.0017 s⁻¹ and a kon of 530000 M⁻¹ s⁻¹. In assay [2], this compound showed a cAMP formation (GloSensor): %Emax of 103% and a cAMP formation (GloSensor): EC50 of 0.79 nM.

Take `CC[C@H](C)[C@H](NC(=O)[C@H](CCCCNC(=O)c1ccc(C(=O)[O-])c(-c2c3ccc(=[N+](C)C)cc-3oc3cc(N(C)C)ccc23)c1)NC(=O)[C@H](C)NC(=O)[C@@H](NC(=O)[C@H](Cc1c[nH]cn1)NC(=O)[C@@H](NC(=O)[C@H](CCC(=O)O)NC(=O)[C@H](C)NC(=O)[C@@H](NC(=O)[C@H](CC(C)C)NC(=O)[C@H](Cc1c[nH]cn1)NC(=O)[C@H](Cc1c[nH]cn1)NC(=O)[C@H](CC(C)C)NC(=O)[C@H](Cc1ccccc1)NC(=O)[C@H](Cc1ccccc1)NC(=O)[C@H](CCCNC(=N)N)NC(=O)[C@H](CCCNC(=N)N)NC(=O)[C@H](CCCNC(=N)N)NC(=O)[C@H](CC(C)C)NC(=O)[C@H](CC(=O)O)NC(=O)[C@H](CC(N)=O)NC(=O)[C@H](CC(C)C)NC(=O)[C@H](Cc1c[nH]cn1)NC(=O)[C@H](CCCCN)NC(=O)CNC(=O)[C@H](CC(C)C)NC(=O)[C@H](CC(N)=O)NC(=O)[C@H](Cc1c[nH]cn1)NC(=O)[C@H](CCSC)NC(=O)[C@H](CC(C)C)NC(=O)[C@H](CCC(N)=O)NC(=O)[C@@H](NC(=O)[C@H](CCC(=O)O)NC(=O)[C@H](CO)NC(=O)[C@@H](NC(=O)[C@@H](N)CO)C(C)C)[C@@H](C)CC)[C@@H](C)CC)[C@@H](C)CC)[C@@H](C)O)C(N)=O` [PTH[1-16] PTHrP[17-36]] (H-SVSEIQLMHNLGKHLNDLRRRFFLHHLIAEIHTAK(X1)I-NH2; N-terminus assumed): on nLuc-PTHR1, the koff was found to be 0.0017 ± 0.001 s⁻¹ and the kon stood at 530000 ± 30000 M⁻¹ s⁻¹. Also, the Emax at WT-PTHR1 was 103 ± 4%.

Regarding M-PTH(1-14)-15K^TMR (peptide), in assay [3], the Kd was 106 nM, the koff was 0.018 s⁻¹ and the kon stood at 180000 M⁻¹ s⁻¹. In assay [1], this compound showed a Kd of 310 nM, a koff of 0.024 s⁻¹ and a kon of 77000 M⁻¹ s⁻¹.

As to “PTH(2-34): N-terminally truncated analogue of PTH(1-34) (VSEIQLMHNLGKHLNSMERVEWLRKKLQDVHNF-NH2; UniProt P01270 33-65, looked up, fragment) [reference compound]”, the “EC50 for cAMP production relative to EC50 of PTH(1-34) (fold higher)” value in the assay with WT-PTHR1 (estimated for the D-peptide) is recorded as ~ 10 fold.

Take “PTH[1-12] PTHrP[13-36] hybrid, Lys35(TMR) (peptide)”: in assay [1], the Kd amounted to 4.4 nM and the koff amounted to 0.0035 s⁻¹. In assay [2], this compound gave a cAMP formation (GloSensor): %Emax of 107% and a cAMP formation (GloSensor): EC50 of 0.55 nM.

As to LA-PTH(1-34)-35K^TMR (peptide), in assay [3], the Kd was found to be 72 nM, the koff came out at 0.0097 s⁻¹ and the kon is 130000 M⁻¹ s⁻¹. In assay [1], this compound gave a Kd of 2.4 nM, a koff of 0.00056 s⁻¹ and a kon of 230000 M⁻¹ s⁻¹.

In assay [1], “PTHrP[1-12] PTH[13-34] hybrid, Lys35(TMR) (peptide)” yielded a Kd of 49 nM, a koff of 0.029 s⁻¹ and a kon of 590000 M⁻¹ s⁻¹. The cAMP formation (GloSensor): EC50 in assay [2] worked out at 0.15 nM.

Turning to PTH(2-34)K35^TMR (peptide), in assay [1], the Kd was determined as 21 nM, the koff amounted to 0.0053 s⁻¹ and the kon is 250000 M⁻¹ s⁻¹.

As to “PTHrP(1-36): N-terminal fragment of parathyroid hormone-related protein, literature comparator [reference compound]”, the “KD with Ile5 relative to His5 at position 5 (fold lower)” value with nLuc-PTHR1 (pH 7.5, K35^TMR-labeled peptides) is ~ 5 fold.

For PTHrP(1-34)-His5-Ile-K35^TMR (peptide), the Kd in assay [1] is 5 nM.

In turn, “LA-PTH (long-acting PTH), unlabeled (peptide)” showed an IC50 in assay [1] of 4.1 nM.

In assay [1], PTH(1-34)K35^TMR, I5H variant (peptide) had a Kd of 104 nM, a koff of 0.071 s⁻¹ and a kon of 440000 M⁻¹ s⁻¹.

“PTH[1-14] PTHrP[15-36] hybrid, Lys35(TMR) (peptide)”: in assay [1], the Kd came to 6.1 nM, the koff was determined as 0.0022 s⁻¹ and the kon came out at 350000 M⁻¹ s⁻¹. Further, in assay [2], the cAMP formation (GloSensor): %Emax stood at 106% and the cAMP formation (GloSensor): EC50 worked out at 0.89 nM.

As for “PTH[1-18] PTHrP[19-36] hybrid, Lys35(TMR) (peptide)”, in assay [1], the Kd came to 26 nM, the koff stood at 0.0079 s⁻¹ and the kon came out at 320000 M⁻¹ s⁻¹. In addition, in assay [2], the cAMP formation (GloSensor): %Emax was found to be 106% and the cAMP formation (GloSensor): EC50 was 0.99 nM.

In the case of “PTH(3-34): N-terminally truncated analogue of PTH(1-34) (SEIQLMHNLGKHLNSMERVEWLRKKLQDVHNF-NH2; UniProt P01270 34-65, looked up, fragment) [reference compound]”, the “agonist activity, cAMP production via the PTHR1 (in words)” value with WT-PTHR1 is given as “only minimal activity”.

Consider PTH(1-34)-N33K^TMR (peptide), for which, in assay [1], the Kd amounted to 11 nM and the koff turned out to be 0.0043 s⁻¹.
